Experimental data: doi:10.1101/2023.02.03.527086

Biological target: T1, interferon regulatory factor 3 (IRF3) (human (endogenous in AC16)), Q14653
T1 chain: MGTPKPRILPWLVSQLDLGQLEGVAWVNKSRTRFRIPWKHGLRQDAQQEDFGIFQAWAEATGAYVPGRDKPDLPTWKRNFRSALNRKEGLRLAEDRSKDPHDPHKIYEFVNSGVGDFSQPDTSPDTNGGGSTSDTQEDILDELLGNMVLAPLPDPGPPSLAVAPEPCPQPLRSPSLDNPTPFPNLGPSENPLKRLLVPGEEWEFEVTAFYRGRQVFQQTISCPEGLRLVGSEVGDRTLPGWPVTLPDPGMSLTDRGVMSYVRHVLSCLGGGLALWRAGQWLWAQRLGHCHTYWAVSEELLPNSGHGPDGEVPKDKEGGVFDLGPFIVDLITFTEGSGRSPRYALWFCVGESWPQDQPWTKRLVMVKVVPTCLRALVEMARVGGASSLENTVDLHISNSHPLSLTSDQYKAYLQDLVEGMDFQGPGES
Assay: native gel or EMSA
Details: remark: other sources report otherwise

B1: interferon regulatory factor 3 (IRF3), Q14653 1-427 (natural protein)
chain: MGTPKPRILPWLVSQLDLGQLEGVAWVNKSRTRFRIPWKHGLRQDAQQEDFGIFQAWAEATGAYVPGRDKPDLPTWKRNFRSALNRKEGLRLAEDRSKDPHDPHKIYEFVNSGVGDFSQPDTSPDTNGGGSTSDTQEDILDELLGNMVLAPLPDPGPPSLAVAPEPCPQPLRSPSLDNPTPFPNLGPSENPLKRLLVPGEEWEFEVTAFYRGRQVFQQTISCPEGLRLVGSEVGDRTLPGWPVTLPDPGMSLTDRGVMSYVRHVLSCLGGGLALWRAGQWLWAQRLGHCHTYWAVSEELLPNSGHGPDGEVPKDKEGGVFDLGPFIVDLITFTEGSGRSPRYALWFCVGESWPQDQPWTKRLVMVKVVPTCLRALVEMARVGGASSLENTVDLHISNSHPLSLTSDQYKAYLQDLVEGMDFQGPGES
stoichiometry N: 2
